In the supplement of paper PMC9112550, “Optimization of the antimicrobial peptide Bac7 by deep mutational scanning” (BMC Biology, 2022):

Test system: Escherichia coli TOP10
Assay: shrunken log2 fold change of peptide-encoding DNA abundance (4.5 h post-induction vs induction); higher = less antimicrobial activity (less host growth inhibition)
Conditions: time post-induction: 4.5 h; library: site-saturation at positions 5, 18, 19, 20
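Further: peptides expressed intracellularly from a pBAD plasmid library in pooled LB shake-flask culture, induced with 0.3% L-arabinose, DNA abundance read by NGS, three biological replicates, DESeq2 with apeglm shrinkage.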

Sequence | shrunken log2 fold change
RRIRARPPRLPRPRPRPACSPRP | 0.591
RRIRARPPRLPRPRPRPADPPRP | 0.611
RRIRARPPRLPRPRPRPAEGPRP | 0.818
RRIRARPPRLPRPRPRPAGEPRP | 0.921
RRIRARPPRLPRPRPRPAHNPRP | 0.155
RRIRARPPRLPRPRPRPAHQPRP | 0.568
RRIRARPPRLPRPRPRPAINPRP | -0.00878
RRIRARPPRLPRPRPRPAIPPRP | -0.101
RRIRARPPRLPRPRPRPAKEPRP | 0.521
RRIRARPPRLPRPRPRPAKVPRP | 0.167
RRIRARPPRLPRPRPRPALYPRP | 0.332
RRIRARPPRLPRPRPRPAMGPRP | 0.505
RRIRARPPRLPRPRPRPAMPPRP | -0.131
RRIRARPPRLPRPRPRPANCPRP | 0.186
RRIRARPPRLPRPRPRPANSPRP | 0.329
RRIRARPPRLPRPRPRPAPLPRP | 0.367
RRIRARPPRLPRPRPRPAPWPRP | 0.632
RRIRARPPRLPRPRPRPASAPRP | 0.52
RRIRARPPRLPRPRPRPASYPRP | 0.187
RRIRARPPRLPRPRPRPATLPRP | 0.34
RRIRARPPRLPRPRPRPAWEPRP | 0.925
RRIRARPPRLPRPRPRPAYKPRP | -0.0413
RRIRARPPRLPRPRPRPCAMPRP | 0.397
RRIRARPPRLPRPRPRPCCAPRP | 0.774
RRIRARPPRLPRPRPRPCCGPRP | 0.525
RRIRARPPRLPRPRPRPCDKPRP | -0.152
RRIRARPPRLPRPRPRPCDWPRP | 0.353

Sequence | shrunken log2 fold change
RRIRARPPRLPRPRPRPCEGPRP | 0.0679
RRIRARPPRLPRPRPRPCHRPRP | 0.0386
RRIRARPPRLPRPRPRPCINPRP | -0.353
RRIRARPPRLPRPRPRPCKMPRP | 0.145
RRIRARPPRLPRPRPRPCMKPRP | -0.167
RRIRARPPRLPRPRPRPCNCPRP | 0.00702
RRIRARPPRLPRPRPRPCPEPRP | 0.179
RRIRARPPRLPRPRPRPCPLPRP | -0.132
RRIRARPPRLPRPRPRPCRIPRP | -0.0344
RRIRARPPRLPRPRPRPCRVPRP | -0.19
RRIRARPPRLPRPRPRPCSIPRP | -0.092
RRIRARPPRLPRPRPRPCTEPRP | -0.0123
RRIRARPPRLPRPRPRPCTVPRP | -0.26
RRIRARPPRLPRPRPRPCWAPRP | 0.119
RRIRARPPRLPRPRPRPCYKPRP | -0.0942
RRIRARPPRLPRPRPRPDAVPRP | 0.683
RRIRARPPRLPRPRPRPDCNPRP | 0.606
RRIRARPPRLPRPRPRPDCTPRP | 0.27
RRIRARPPRLPRPRPRPDDNPRP | 0.248
RRIRARPPRLPRPRPRPDEIPRP | 0.357
RRIRARPPRLPRPRPRPDFFPRP | 0.307
RRIRARPPRLPRPRPRPDGCPRP | 0.239
RRIRARPPRLPRPRPRPDHLPRP | -0.0183
RRIRARPPRLPRPRPRPDHYPRP | -0.287
RRIRARPPRLPRPRPRPDIVPRP | 0.244
RRIRARPPRLPRPRPRPDLFPRP | 1.09
RRIRARPPRLPRPRPRPDLQPRP | 0.79
